Series [1] deals with T1, Granzyme B in MC38 tumors (Mus musculus, UniProt P04187).
T1 construct: from tissue; host or cells: MC38 tumors in living C57 mice
T1 sequence (P04187 21-247): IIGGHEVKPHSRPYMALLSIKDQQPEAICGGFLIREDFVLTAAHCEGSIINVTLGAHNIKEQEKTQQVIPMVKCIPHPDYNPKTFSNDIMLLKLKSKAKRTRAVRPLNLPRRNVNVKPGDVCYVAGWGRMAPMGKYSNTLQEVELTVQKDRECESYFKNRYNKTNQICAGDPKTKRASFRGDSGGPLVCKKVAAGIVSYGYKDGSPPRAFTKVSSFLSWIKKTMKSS
Also noted: species or system C57 mice. Particulars: in vivo. The procedure:
(§1) MC38 and 4T1 tumor cells were inoculated subcutaneously in the right axilla of C57 and BALB/c mice, respectively, to establish immunotherapy pseudo-progression and true-progression mouse models. 200 μg of the anti-PD-1 antibody and anti-CTLA-4 antibody were injected intraperitoneally for a total of 3 times on days 0, 3 and 6, respectively. […] After injection for 0.5 h, the animals were anesthetized with isoflurane for PET/CT imaging. The changes of the tumor size in MC38 and 4T1 tumor-bearing mice were measured by a vernier caliper.

For series [2], the target named is T2, tumor Granzyme B (Mus musculus, UniProt P04187).
T2 construct: from tissue; host or cells: MC38 tumors in living C57 mice
T2 sequence (P04187 21-247): T1 sequence (P04187 21-247)
Briefly: PET/CT imaging in MC38 tumor-bearing mice, comparison with radiopharmaceuticals with similar structures. The format is in vivo, C57 mice. Particulars: 7.4 MBq via tail vein, 0.5 h after injection, compared with the other three comparative radiopharmaceuticals. Here is the method:
In order to compare the in vivo nuclear medicine imaging advantages of the Granzyme B-targeting complex of the present invention, three Granzyme B-targeting complexes with similar structures are prepared by a similar synthesis method. All of them were labeled with ^68Ga after DOTA coupling to obtain the corresponding Granzyme B-targeting radioactive compounds. 7.4 MBq of the freshly prepared ^68Ga-labeled complex was taken and injected into female C57 mice bearing MC38 tumors via the tail vein. After injection for 0.5 h, the animals were anesthetized with isoflurane for PET/CT imaging. The result is illustrated in FIG. 11, showing that the ^68Ga-labelled DOTA complex of the present invention had optimal tumor Granzyme B uptake and low normal tissue (e.g. gastrointestinal tract) uptake compared with the other three comparative radiopharmaceuticals.

A further series concerns the target T3, Granzyme B in 4T1 tumors (Mus musculus, UniProt P04187).
T3 construct: from tissue; host or cells: 4T1 tumors in living BALB/c mice
T3 sequence (P04187 21-247): T1 sequence (P04187 21-247)
Also noted: species or system BALB/c mice. As to conditions: in vivo. The procedure: as §1

In series [3] the target is T2, tumor Granzyme B. As to the kind of experiment: SPECT/CT imaging of tumor Granzyme B in MC38 tumor-bearing mice. The format is in vivo, C57 mice. Particulars: 18.5 MBq via tail vein, 0.5 h after injection. The procedure:
SPECT imaging of tumor Granzyme B with a ^99mTc-labeled HYNIC complex. 18.5 MBq of the freshly prepared ^99mTc-labeled HYNIC complex was taken and injected into female C57 mice bearing MC38 tumors in the right axilla via the tail vein. After injection for 0.5 h, the animals were anesthetized with isoflurane for SPECT/CT imaging.

For the molecule `CC[C@H](C)[C@H](NC(=O)Cc1cccc(CNC(=O)C[C@H](NC(=O)C[C@H](NC(=O)CN2CCN(CC(=O)O)CCN(CC(=O)O)CCN(CC(=O)O)CC2)C(=O)O)C(=O)O)c1)C(=O)N[C@H]1CCc2cccc3c2N(C1=O)[C@H](C(=O)NCc1cn[nH]n1)C3` [^68Ga-labeled DOTA complex, metal not drawn], in series [1], the “tumor uptake at day 6 versus day 0” value is given as “significantly higher than that at day 0”. In addition, the “normal tissue (e.g. gastrointestinal tract) uptake” value with tumor Granzyme B [2] is on record as “low”. Further, the “tumor uptake on day 6 versus day 0” value with Granzyme B in 4T1 tumors is reported as “no significant difference”.
Regarding `CC[C@H](C)[C@H](NC(=O)Cc1cccc(CNC(=O)C[C@H](NC(=O)C[C@H](NC(=O)c2ccc(NN)nc2)C(=O)O)C(=O)O)c1)C(=O)N[C@H]1CCc2cccc3c2N(C1=O)[C@H](C(=O)NCc1cn[nH]n1)C3` [^99mTc-labeled HYNIC complex, metal not drawn], the “uptake value in MC38 tumors (SPECT)” value in the series with tumor Granzyme B [3] is given as “good uptake value”.

For the origin of these results see patent US20240408248A1, “GRANZYME B-TARGETING COMPLEX, RADIOPHARMACEUTICAL, PREPARATION METHOD THEREFOR AND USE THEREOF” (priority 2021, published 2024).
